The results in this text go back to patent US20240002499A1, “ANTI-CLIC1 PROTEIN ANTIBODIES AND THE DIAGNOSTIC AND THERAPEUTIC USES THEREOF” (Universita' Degli Studi di Milano, priority 2020, published 2024).

The subject of test [1] is human glioblastoma cells. In words: ROS production in human glioblastoma cells in primary culture. The test is classed as cell-based. The procedure: In the subsequent functional experiment, ROS production was measured over time. The graph in FIG. 11 relates to the acquisition of fluorescence signals proportional to the amount of cytoplasmic ROS in glioblastoma cells. The cells were treated with both the antibody and the tmCLIC1 channel blocker.

Test [2] relates to Metalloproteinase 7 (MMP7). Description: Western blot of Metalloproteinase 7 in COLO201. The test is classed as cell-based. Particulars: COLO201, 72 h of treatment.
Test [3] concerns microglial cells. Description: ROS production in cultured microglial cells. The test is classed as cell-based, mice. The note with it: after addition of β-amyloid and antibody. The procedure: A second functional experiment performed on microglial cells involved measuring the production of reactive oxygen species (ROS), which contribute to creating a highly oxidising environment harmful to the neurones. Once again (FIG. 5), a physiological increase in cytoplasmic ROS was recorded (baseline), with ROS production after addition of β-amyloid, and finally, cell oxidation during the simultaneous presence of amyloid peptide and the tmCLIC1omab antibody.

The test system of test [4] is human glioblastoma cells. In words: Glioblastoma cells pre-treated with antibody, inoculated into the brain of immunodepressed mice, magnetic resonance scan. The test is classed as in vivo. Particulars: cells incubated 72 hours with antibody before inoculation; scan two months after inoculation. The procedure: In the in vivo experiments, human glioblastoma cells were incubated for 72 hours with tmCLIC1omab antibody before being inoculated into the brain of immunodepressed mice.
Patient-derived neurospheres were mechanically dissociated, resuspended in […], and injected into the caudate nucleus (1 mm posterior, 3 mm left lateral, 3.5 mm deep relative to bregma) of 5-week-old female CD1 nu/nu mice (Charles River, Wilmington, MA). The cells were incubated with the antibody or the control isotype for 72 hours before implantation (10^5 cells) into the brain of immunodeficient mice. The experiments were conducted pursuant to Italian law (Order of the Executive 116/92, as amended), which transposes EU Directive 86/609 (Council Directive 86/609/EEC of 24 Nov. 1986 on the approximation of laws, regulations and administrative provisions of the Member States regarding the protection of animals used for experimental and other scientific purposes).

Test [5] has as its target T1, tmCLIC1 (Mus musculus, UniProt Q9Z1Q5).
T1 construct: endogenous in cells; host or cells: BV-2 mouse microglial cell line
Description: Immunofluorescence on live microglial cells. The format is cell-based, mice. Particulars: live microglial cells before and after stimulation with β-amyloid. The procedure:
The migration of the protein to the plasma membrane gives rise to insertion of CLIC1 as transmembrane protein. The tmCLIC1omab antibody was used on live cells to specifically identify tmCLIC1. […] In live cells, the tmCLIC1omab antibody was used before (B) and after (C) stimulation with β-amyloid.
Immunofluorescence analyses were conducted to evaluate the specificity of the antibody in binding the transmembrane portion of the CLIC1 protein in WT and Clic1^−/− cells. The cells (5×10^4 cells/well) were plated on slides (ϕ12 mm). The cells were kept viable throughout the initial processes. The cells were washed three times with PBS Ca^2+/Mg^2+, and incubated for 45 minutes at room temperature in blocking solution (5% BSA in PBS). Subsequently, after removal of the blocking solution, the solution containing the antibody (3.5 μg/ml in PBS/BSA 5×) was added, and incubated for 1 h at room temperature. After three washes with PBS Ca^2+/Mg^2+, the cells were fixed with paraformaldehyde (PFA 2%) for 5 minutes at room temperature. After being washed three times with PBS Ca^2+/Mg^2+, the cells were incubated with secondary antibody Alexa Fluor 488 (Thermo Fischer Scientific) for 2 h at room temperature in the dark. […] The slides were observed through a Zeiss Examiner A1 fluorescence microscope with a Zeiss 40×/0.75 NA water immersion lens.

The target of test [6] is T2, CLIC1 (Homo sapiens, UniProt O00299).
T2 construct: expressed in transfected cells; host or cells: HEK cells
Description: Whole-cell patch clamp on HEK cells transfected with CLIC1 plasmid. The test is classed as cell-based. The note with it: HEK cells overexpressing CLIC1; voltage steps from −60 to +80 mV; IAA94 50 μM. The procedure:
FIG. 17. Current/voltage relationship of CLIC1 membrane current in whole-cell patch clamp experiments. HEK cells were transfected with CLIC1 plasmid to overexpress the CLIC1 protein. After recording control current (filled cycles; n=5) cells were perfused alternatively with the polyclonal antibody (open triangles; n=7), tmCLIComab (inverse open triangles; n=10) and with 50 μM IAA94 (filled squared; n=11). The whole cells current is expressed as a current density.
The reference sequence of the CLIC1 protein used in the experiments described in the present patent application is filed at UniProt under number UniProtKB—000299 (CLIC1 human), and described in the article Harrop S. J. et al., “Crystal structure of a soluble form of the intracellular chloride ion channel CLIC1 (NCC27) at 1.4-Å Resolution”; The Journal of Biological Chemistry, Vol. 276 No. 48, November 30, pp. 44993-45000 (2001).
The potential was set on the basis of the resting potential of each cell (between 0 and −80 mV). The CLIC1-mediated chlorine currents were isolated from other ion currents by mathematical subtraction of the residual current following perfusion of 100 μM IAA94 dissolved in the external solution.
For orientation: Patch clamp records ionic current or voltage across a cell membrane.

Test [7] has as its system mouse glioblastoma cells. Description: Glioblastoma cell growth curves, polyclonal antibody versus tmCLIC1omab. The format is cell-based. The note with it: exposing cells for 96 hours. The procedure:
The cells were seeded in 24-well plates (20,000 cells/well) and counted after 24, 48, 72 and 96 hours to construct the growth curve. The cells were collected and centrifuged, and the resuspended pellet was diluted 1:1 with Trypan Blue. An automated counter (Countess II, Thermo Fisher Scientific) was used to count the cells. All data were normalized to their controls.
The cells were plated in 24-well multiwell plates at a density of 10,000 cells/cm 2. The number of live and dead cells for each sample was counted after 72 hours with an automated counter (Countess II, Thermo Fisher Scientific), following the same process as used for the growth curves. All data were standardised to the corresponding controls.

B1: tmCLIC1omab: IgG1 class antibody containing the heavy chain variable region SEQ ID NO:13 and the light chain variable region SEQ ID NO:14 (antibody, listed as Mus musculus, V domains shown)
VH: EVMLVESGGGLVKPGGSLKLSCAASGFAFSNYAMSWIRQIPEKRLEWVATISTGGSSTFYPDSVKGRFTISRDNAKNTLYLQMSSLRSEDTAMYYCTRHAYEAWFAYWGQGTLVTVSA
VL: QIVLTQSPALMSASPGEKVTMTCSASSSVSYMYWYQQRPRSSPKPWIYLTSTLASGVPTRFSGSGSGTSYSLTISSMEAEDAATYYCQQWNSHPLTFGSGTKLEIK
For B1, in test [1] (FIG. 11 legend, versus control), the “fall in ROS production” value is recorded as “about fourfold”. Further, in test [1] (fluorescence signals proportional to cytoplasmic ROS), the “reduction of the slope of the ROS increase curve” value is recorded as “about fivefold”. For the same molecule, the “expression of Metalloproteinase 7” value in test [2] is “mainly abolished”. The ROS production result in test [3] is on record as “falls to the control level”. Besides, the “tumour mass on magnetic resonance scan” value in test [4] is reported as “much smaller mass”. Further, the “recognition of tmCLIC1 on live cells” value in test [5] is recorded as “only reacts from the exterior”. In addition, in test [6], the “inhibition of CLIC1 ionic whole-cell current” value is given as “matched only by tmCLIC1omab”. Also, the “percentage of cell death” value in test [7] came out at 15%.
